Assay results from paper PMC3170924 (Journal of molecular biology, 2011).

B1: PG peptide, K2WQ10(D-Pro)GQ10AK2 (polyglutamine peptide interrupted by the beta-turn template D-ProGly) (peptide)
peptide: KKWQQQQQQQQQQPGQQQQQQQQQQAKK
HELM: PEPTIDE1{[ac].K.K.W.Q.Q.Q.Q.Q.Q.Q.Q.Q.Q.[dP].G.Q.Q.Q.Q.Q.Q.Q.Q.Q.Q.A.K.K.[am]}$$$$V2.0
SMILES: CC(=O)N[C@@H](CCCCN)C(=O)N[C@@H](CCCCN)C(=O)N[C@@H](Cc1c[nH]c2ccccc12)C(=O)N[C@@H](CCC(N)=O)C(=O)N[C@@H](CCC(N)=O)C(=O)N[C@@H](CCC(N)=O)C(=O)N[C@@H](CCC(N)=O)C(=O)N[C@@H](CCC(N)=O)C(=O)N[C@@H](CCC(N)=O)C(=O)N[C@@H](CCC(N)=O)C(=O)N[C@@H](CCC(N)=O)C(=O)N[C@@H](CCC(N)=O)C(=O)N[C@@H](CCC(N)=O)C(=O)N1CCC[C@@H]1C(=O)NCC(=O)N[C@@H](CCC(N)=O)C(=O)N[C@@H](CCC(N)=O)C(=O)N[C@@H](CCC(N)=O)C(=O)N[C@@H](CCC(N)=O)C(=O)N[C@@H](CCC(N)=O)C(=O)N[C@@H](CCC(N)=O)C(=O)N[C@@H](CCC(N)=O)C(=O)N[C@@H](CCC(N)=O)C(=O)N[C@@H](CCC(N)=O)C(=O)N[C@@H](CCC(N)=O)C(=O)N[C@@H](C)C(=O)N[C@@H](CCCCN)C(=O)N[C@@H](CCCCN)C(N)=O

Biological target: the molecule itself
Test: sedimentation assay

| Protein | Kn k+^2 (nucleation-elongation fit of sedimentation data) [M^−2s^−2] |
| --- | --- |
| Ac-KKWQQQQQQQQQQQQQQQQQQQQAKK-NH2 [Q20 peptide, K2WQ20AK2 (uninterrupted polyglutamine control)] | 0.000235 |
| Ac-KKWQQQQQQQQQQAAQQQQQQQQQQAKK-NH2 [AA peptide, K2WQ10AAQ10AK2 (polyglutamine peptide interrupted by AlaAla)] | 0.000197 |
| B1 | 0.127 |
